Positions count from the first letter of the chain named.
Assays:
Assay in all cases: holdup assay
Parameters in all cases: key: below the threshold = too weak to quantify, mostly under pKd 3.1 to 4
Details in all cases: plain residues with an end cap or a label only (N-terminal biotin on a linker: ado-ado)
FRMPD2_2, Q68DX3 = biological target: FRMPD2_2, Q68DX3
MAST2, Q6P0Q8 = biological target: MAST2, Q6P0Q8
AHNAK1, Q09666 = biological target: AHNAK1, Q09666
LIN7B, Q9HAP6 = biological target: T1, LIN7B, Q9HAP6
T1 sequence (Q9HAP6 88-185, limits assumed, looked up): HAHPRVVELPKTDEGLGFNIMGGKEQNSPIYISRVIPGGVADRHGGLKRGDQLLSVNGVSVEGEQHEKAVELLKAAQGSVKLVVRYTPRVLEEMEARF

FRMPD2_1, Q68DX3 = biological target: FRMPD2_1, Q68DX3
FRMPD1, Q5SYB0 = biological target: T2, FRMPD1, Q5SYB0
T2 sequence (Q5SYB0 52-145, limits assumed, looked up): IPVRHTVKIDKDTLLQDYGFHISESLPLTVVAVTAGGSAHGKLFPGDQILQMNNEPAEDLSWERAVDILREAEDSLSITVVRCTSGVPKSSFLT

PDZD7_3, Q9H5P4 = biological target: T3, PDZD7_3, Q9H5P4
T3 sequence (Q9H5P4 857-944, limits assumed, looked up): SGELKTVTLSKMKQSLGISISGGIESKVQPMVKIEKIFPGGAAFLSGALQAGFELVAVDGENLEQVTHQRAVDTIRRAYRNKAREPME

MPP2, Q14168 = biological target: T4, MPP2, Q14168
T4 sequence (Q14168 180-250, limits assumed, looked up): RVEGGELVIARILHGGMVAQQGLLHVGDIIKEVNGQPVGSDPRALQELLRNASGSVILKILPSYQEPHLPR

Inadl_6, Q8NI35 = biological target: Inadl_6, Q8NI35
Inadl_1, Q8NI35 = biological target: Inadl_1, Q8NI35
Inadl_3, Q8NI35 = biological target: Inadl_3, Q8NI35
IL16_4, Q14005 = biological target: IL16_4, Q14005
DLG4_2, P78352 = biological target: DLG4_2, P78352
NHERF4_1, Q86UT5-2 = biological target: NHERF4_1, Q86UT5-2
HTRA4, P83105 = biological target: T5, HTRA4, P83105
T5 sequence (P83105 378-476, limits assumed, looked up): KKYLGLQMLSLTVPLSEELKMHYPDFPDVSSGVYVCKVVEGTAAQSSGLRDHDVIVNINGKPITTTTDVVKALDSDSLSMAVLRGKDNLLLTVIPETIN

Inadl_8, Q8NI35 = biological target: Inadl_8, Q8NI35
Inadl_9, Q8NI35 = biological target: Inadl_9, Q8NI35
CARD11, Q9BXL7 = biological target: T6, CARD11, Q9BXL7
T6 sequence (Q9BXL7 662-765, limits assumed, looked up): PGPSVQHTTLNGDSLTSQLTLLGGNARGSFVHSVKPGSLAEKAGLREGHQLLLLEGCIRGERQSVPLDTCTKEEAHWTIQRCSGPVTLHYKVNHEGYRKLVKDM

PDZD2_2, O15018 = biological target: T7, PDZD2_2, O15018
T7 sequence (O15018 329-429, limits assumed, looked up): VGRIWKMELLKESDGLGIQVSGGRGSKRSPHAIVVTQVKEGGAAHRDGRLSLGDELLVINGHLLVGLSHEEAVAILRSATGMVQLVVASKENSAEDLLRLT

LNX1_3, Q8TBB1 = biological target: LNX1_3, Q8TBB1
NHERF4_4, Q86UT5 = biological target: NHERF4_4, Q86UT5
LNX2_3, Q8N448 = biological target: T8, LNX2_3, Q8N448
T8 sequence (Q8N448 463-564, limits assumed, looked up): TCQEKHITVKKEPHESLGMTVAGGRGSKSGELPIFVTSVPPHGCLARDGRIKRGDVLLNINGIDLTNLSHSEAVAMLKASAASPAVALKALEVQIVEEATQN

ARHGAP21, Q5T5U3 = biological target: T9, ARHGAP21, Q5T5U3
T9 sequence (Q5T5U3 45-169, limits assumed, looked up): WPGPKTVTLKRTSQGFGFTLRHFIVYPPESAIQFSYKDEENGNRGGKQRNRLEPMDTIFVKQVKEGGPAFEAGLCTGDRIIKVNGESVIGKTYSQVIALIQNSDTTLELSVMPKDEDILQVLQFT

MAGI2_5, Q86UL8 = biological target: MAGI2_5, Q86UL8
GRID2IP_1, A4D2P6 = biological target: GRID2IP_1, A4D2P6
LIN7C, Q9NUP9 = biological target: T10, LIN7C, Q9NUP9
T10 sequence (Q9NUP9 88-185, limits assumed, looked up): T1 sequence (Q9HAP6 88-185, limits assumed, looked up) with A2S, D13E, V35I, V40I, Q65H, S79K, R89K, A96S

GRIP1_4, Q9Y3R0 = biological target: T11, GRIP1_4, Q9Y3R0
T11 sequence (Q9Y3R0 467-571, limits assumed, looked up): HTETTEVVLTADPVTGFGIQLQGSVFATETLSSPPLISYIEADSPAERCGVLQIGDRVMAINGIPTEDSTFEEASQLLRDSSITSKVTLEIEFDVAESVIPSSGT

Sequence of Inadl_8, Q8NI35 (Q8NI35 1425-1530): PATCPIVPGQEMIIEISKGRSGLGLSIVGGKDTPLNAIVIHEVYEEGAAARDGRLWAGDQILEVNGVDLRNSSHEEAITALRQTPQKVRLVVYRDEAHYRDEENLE
Sequence of FRMPD2_2, Q68DX3 (Q68DX3 944-1038): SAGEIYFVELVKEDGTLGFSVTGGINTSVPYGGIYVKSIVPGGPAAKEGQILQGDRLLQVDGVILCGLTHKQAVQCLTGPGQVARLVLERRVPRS
Sequence of AHNAK1, Q09666 (Q09666 4-100): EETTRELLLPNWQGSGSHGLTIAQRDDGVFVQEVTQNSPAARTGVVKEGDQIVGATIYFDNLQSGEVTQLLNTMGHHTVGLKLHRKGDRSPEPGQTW
Sequence of Inadl_1, Q8NI35 (Q8NI35 113-229): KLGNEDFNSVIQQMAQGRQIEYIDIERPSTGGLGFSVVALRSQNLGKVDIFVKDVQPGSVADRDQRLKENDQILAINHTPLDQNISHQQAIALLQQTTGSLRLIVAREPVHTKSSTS
Sequence of Inadl_9, Q8NI35 (Q8NI35 1530-1615): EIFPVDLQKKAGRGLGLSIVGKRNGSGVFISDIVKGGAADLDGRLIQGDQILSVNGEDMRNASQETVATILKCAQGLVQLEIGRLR
Sequence of NHERF4_4, Q86UT5 (Q86UT5 464-550): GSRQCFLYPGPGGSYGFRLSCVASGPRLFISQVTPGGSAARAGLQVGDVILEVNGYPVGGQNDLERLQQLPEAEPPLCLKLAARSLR
Sequence of MAST2, Q6P0Q8 (Q6P0Q8 1099-1202): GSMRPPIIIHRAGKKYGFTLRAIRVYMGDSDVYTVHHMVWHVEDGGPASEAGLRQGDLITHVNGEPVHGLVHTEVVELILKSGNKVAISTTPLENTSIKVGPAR
Sequence of NHERF4_1, Q86UT5-2 (Q86UT5 other isoform, or with tags, fused parts or gaps): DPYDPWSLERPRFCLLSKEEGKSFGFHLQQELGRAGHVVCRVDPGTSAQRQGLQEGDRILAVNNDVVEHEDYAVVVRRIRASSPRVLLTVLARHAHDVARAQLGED
Sequence of Inadl_3, Q8NI35 (Q8NI35 359-469): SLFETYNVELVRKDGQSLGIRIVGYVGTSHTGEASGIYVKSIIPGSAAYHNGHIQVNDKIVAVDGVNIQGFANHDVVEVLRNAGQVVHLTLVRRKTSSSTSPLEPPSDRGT
Sequence of Inadl_6, Q8NI35 (Q8NI35 1058-1167): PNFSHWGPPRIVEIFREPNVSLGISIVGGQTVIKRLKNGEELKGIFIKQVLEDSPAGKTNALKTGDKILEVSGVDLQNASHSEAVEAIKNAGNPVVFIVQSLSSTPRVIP
Sequence of MAGI2_5, Q86UL8 (Q86UL8 915-1017): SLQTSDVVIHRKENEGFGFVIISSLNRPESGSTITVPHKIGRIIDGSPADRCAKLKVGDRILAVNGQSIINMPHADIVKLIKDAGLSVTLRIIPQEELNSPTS
Sequence of IL16_4, Q14005 (Q14005 1229-1329): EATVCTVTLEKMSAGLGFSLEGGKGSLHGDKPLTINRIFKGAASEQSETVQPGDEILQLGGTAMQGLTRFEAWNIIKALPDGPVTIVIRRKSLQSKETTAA
Sequence of LNX1_3, Q8TBB1 (Q8TBB1 500-596): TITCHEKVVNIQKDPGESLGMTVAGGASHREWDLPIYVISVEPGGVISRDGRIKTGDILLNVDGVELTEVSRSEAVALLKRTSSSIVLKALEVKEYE
Sequence of DLG4_2, P78352 (P78352 155-259): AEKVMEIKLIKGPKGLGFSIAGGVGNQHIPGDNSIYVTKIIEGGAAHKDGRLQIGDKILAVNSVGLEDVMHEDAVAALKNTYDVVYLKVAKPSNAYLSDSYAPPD
Sequence of FRMPD2_1, Q68DX3 (Q68DX3 770-861): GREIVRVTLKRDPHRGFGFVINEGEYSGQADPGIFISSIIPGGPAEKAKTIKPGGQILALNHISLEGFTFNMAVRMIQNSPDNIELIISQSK
Sequence of GRID2IP_1, A4D2P6 (A4D2P6 1-87): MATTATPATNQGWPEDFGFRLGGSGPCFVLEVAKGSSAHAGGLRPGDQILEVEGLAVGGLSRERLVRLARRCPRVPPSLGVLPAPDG

Binder: GTMFLRETSL [GUCY1A2, P33402]
- pKd (FRMPD2_2, Q68DX3): below the threshold
- pKd (MAST2, Q6P0Q8): 5.68
- pKd (AHNAK1, Q09666): below the threshold
- pKd (LIN7B, Q9HAP6): 4.74
- pKd (FRMPD2_1, Q68DX3): below the threshold
- pKd (FRMPD1, Q5SYB0): below the threshold
- pKd (PDZD7_3, Q9H5P4): 4.97
- pKd (MPP2, Q14168): below the threshold
- pKd (Inadl_6, Q8NI35): 4.84
- pKd (Inadl_1, Q8NI35): below the threshold
- pKd (Inadl_3, Q8NI35): below the threshold
- pKd (IL16_4, Q14005): 3.51
- pKd (DLG4_2, P78352): 4.5
- pKd (NHERF4_1, Q86UT5-2): 4.54
- pKd (HTRA4, P83105): 3.85
- pKd (Inadl_8, Q8NI35): 3.9
- pKd (Inadl_9, Q8NI35): below the threshold
- pKd (CARD11, Q9BXL7): below the threshold
- pKd (PDZD2_2, O15018): below the threshold
- pKd (LNX1_3, Q8TBB1): below the threshold
- pKd (NHERF4_4, Q86UT5): below the threshold
- pKd (LNX2_3, Q8N448): below the threshold
- pKd (ARHGAP21, Q5T5U3): 4.7
- pKd (MAGI2_5, Q86UL8): 3.98
- pKd (GRID2IP_1, A4D2P6): below the threshold
- pKd (LIN7C, Q9NUP9): 4.83
- pKd (GRIP1_4, Q9Y3R0): below the threshold

Binder: IKLETKKTKL [SLC15A2, Q16348]
- pKd (FRMPD2_2, Q68DX3): below the threshold
- pKd (MAST2, Q6P0Q8): 5.56
- pKd (AHNAK1, Q09666): below the threshold
- pKd (LIN7B, Q9HAP6): below the threshold
- pKd (FRMPD2_1, Q68DX3): below the threshold
- pKd (FRMPD1, Q5SYB0): below the threshold
- pKd (PDZD7_3, Q9H5P4): 4.75
- pKd (MPP2, Q14168): below the threshold
- pKd (Inadl_6, Q8NI35): below the threshold
- pKd (Inadl_1, Q8NI35): below the threshold
- pKd (Inadl_3, Q8NI35): below the threshold
- pKd (IL16_4, Q14005): 3.72
- pKd (DLG4_2, P78352): 3.87
- pKd (NHERF4_1, Q86UT5-2): 4.27
- pKd (HTRA4, P83105): 3.99
- pKd (Inadl_8, Q8NI35): 3.76
- pKd (Inadl_9, Q8NI35): below the threshold
- pKd (CARD11, Q9BXL7): below the threshold
- pKd (PDZD2_2, O15018): below the threshold
- pKd (LNX1_3, Q8TBB1): below the threshold
- pKd (NHERF4_4, Q86UT5): below the threshold
- pKd (LNX2_3, Q8N448): below the threshold
- pKd (ARHGAP21, Q5T5U3): 3.98
- pKd (MAGI2_5, Q86UL8): 3.6
- pKd (GRID2IP_1, A4D2P6): below the threshold
- pKd (LIN7C, Q9NUP9): below the threshold
- pKd (GRIP1_4, Q9Y3R0): below the threshold

Binder: GQNMTVSVVI [PRLHR, P49683]
- pKd (FRMPD2_2, Q68DX3): below the threshold
- pKd (MAST2, Q6P0Q8): below the threshold
- pKd (AHNAK1, Q09666): below the threshold
- pKd (LIN7B, Q9HAP6): 3.79
- pKd (FRMPD2_1, Q68DX3): below the threshold
- pKd (FRMPD1, Q5SYB0): below the threshold
- pKd (PDZD7_3, Q9H5P4): 4.4
- pKd (MPP2, Q14168): below the threshold
- pKd (Inadl_6, Q8NI35): below the threshold
- pKd (Inadl_1, Q8NI35): below the threshold
- pKd (Inadl_3, Q8NI35): 4.52
- pKd (IL16_4, Q14005): 3.62
- pKd (DLG4_2, P78352): below the threshold
- pKd (NHERF4_1, Q86UT5-2): 3.64
- pKd (HTRA4, P83105): 4.15
- pKd (Inadl_8, Q8NI35): 3.8
- pKd (Inadl_9, Q8NI35): below the threshold
- pKd (CARD11, Q9BXL7): below the threshold
- pKd (PDZD2_2, O15018): below the threshold
- pKd (LNX1_3, Q8TBB1): below the threshold
- pKd (NHERF4_4, Q86UT5): 3.97
- pKd (LNX2_3, Q8N448): 3.61
- pKd (ARHGAP21, Q5T5U3): below the threshold
- pKd (MAGI2_5, Q86UL8): below the threshold
- pKd (GRID2IP_1, A4D2P6): below the threshold
- pKd (LIN7C, Q9NUP9): below the threshold
- pKd (GRIP1_4, Q9Y3R0): below the threshold

Binder: NSTHNLKDYV [CLDN20, P56880]
- pKd (FRMPD2_2, Q68DX3): below the threshold
- pKd (MAST2, Q6P0Q8): below the threshold
- pKd (AHNAK1, Q09666): below the threshold
- pKd (LIN7B, Q9HAP6): below the threshold
- pKd (FRMPD2_1, Q68DX3): below the threshold
- pKd (FRMPD1, Q5SYB0): below the threshold
- pKd (PDZD7_3, Q9H5P4): below the threshold
- pKd (MPP2, Q14168): below the threshold
- pKd (Inadl_6, Q8NI35): below the threshold
- pKd (Inadl_1, Q8NI35): below the threshold
- pKd (Inadl_3, Q8NI35): below the threshold
- pKd (IL16_4, Q14005): 3.65
- pKd (DLG4_2, P78352): below the threshold
- pKd (NHERF4_1, Q86UT5-2): 3.69
- pKd (HTRA4, P83105): below the threshold
- pKd (Inadl_8, Q8NI35): 3.82
- pKd (Inadl_9, Q8NI35): 3.66
- pKd (CARD11, Q9BXL7): below the threshold
- pKd (PDZD2_2, O15018): 4.56
- pKd (LNX1_3, Q8TBB1): below the threshold
- pKd (NHERF4_4, Q86UT5): below the threshold
- pKd (LNX2_3, Q8N448): below the threshold
- pKd (ARHGAP21, Q5T5U3): 3.89
- pKd (MAGI2_5, Q86UL8): below the threshold
- pKd (GRID2IP_1, A4D2P6): below the threshold
- pKd (LIN7C, Q9NUP9): below the threshold
- pKd (GRIP1_4, Q9Y3R0): below the threshold

Binder: DLLGGGSDSI [TNRC6B, Q9UPQ9]
- pKd (FRMPD2_2, Q68DX3): below the threshold
- pKd (MAST2, Q6P0Q8): below the threshold
- pKd (AHNAK1, Q09666): below the threshold
- pKd (LIN7B, Q9HAP6): 3.61
- pKd (FRMPD2_1, Q68DX3): below the threshold
- pKd (FRMPD1, Q5SYB0): below the threshold
- pKd (PDZD7_3, Q9H5P4): below the threshold
- pKd (MPP2, Q14168): below the threshold
- pKd (Inadl_6, Q8NI35): below the threshold
- pKd (Inadl_1, Q8NI35): below the threshold
- pKd (Inadl_3, Q8NI35): below the threshold
- pKd (IL16_4, Q14005): 3.61
- pKd (DLG4_2, P78352): 3.5
- pKd (NHERF4_1, Q86UT5-2): 3.63
- pKd (HTRA4, P83105): below the threshold
- pKd (Inadl_8, Q8NI35): below the threshold
- pKd (Inadl_9, Q8NI35): below the threshold
- pKd (CARD11, Q9BXL7): below the threshold
- pKd (PDZD2_2, O15018): 3.68
- pKd (LNX1_3, Q8TBB1): below the threshold
- pKd (NHERF4_4, Q86UT5): below the threshold
- pKd (LNX2_3, Q8N448): below the threshold
- pKd (ARHGAP21, Q5T5U3): below the threshold
- pKd (MAGI2_5, Q86UL8): below the threshold
- pKd (GRID2IP_1, A4D2P6): below the threshold
- pKd (LIN7C, Q9NUP9): 3.48
- pKd (GRIP1_4, Q9Y3R0): below the threshold
